Experimental findings from patent US20070129307A1, “Insulin epitopes for the treatment of type 1 diabetes” (The University of British Columbia, priority 2001, published 2007) are described below.

For assay [1], the target named is T1, murine MHC class I molecule, H-2Kd (mouse).
T1 chain 1: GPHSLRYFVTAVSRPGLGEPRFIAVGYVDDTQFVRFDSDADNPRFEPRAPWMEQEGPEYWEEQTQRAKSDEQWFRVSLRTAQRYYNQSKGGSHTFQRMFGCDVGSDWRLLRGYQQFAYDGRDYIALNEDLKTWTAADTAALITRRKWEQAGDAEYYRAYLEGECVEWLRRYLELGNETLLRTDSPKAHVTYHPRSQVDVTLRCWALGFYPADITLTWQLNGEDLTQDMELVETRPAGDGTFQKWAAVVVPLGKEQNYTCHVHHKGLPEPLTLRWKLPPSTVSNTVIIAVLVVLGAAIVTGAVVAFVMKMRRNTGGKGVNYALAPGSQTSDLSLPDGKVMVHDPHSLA
T1 chain 2: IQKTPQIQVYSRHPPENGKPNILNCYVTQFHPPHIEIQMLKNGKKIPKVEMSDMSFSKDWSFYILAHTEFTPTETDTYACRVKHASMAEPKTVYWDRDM
Put plainly: MHC class I stabilization assay on TAP-deficient RMAS-Kd cells, anti-H-2Kd-FITC, flow cytometry (background without peptide 6.07%).

The target of assay [2] is human MHC class I molecule HLA-A*0201 (human). Put plainly: HLA-A2 stabilization on T2 cells loaded with 50 ug/ml peptide, anti-HLA-A2 (BB7.2) flow cytometry, MFI relative to CMV/A2.

B1: NRP-V7 (peptide)
peptide: KYNKANVFL
modifications: not checked
On to B1, for which, in assay [1], the % of RMAS-Kd cells staining positive for surface H-2Kd amounted to 72.7%.

B2: HCV peptide (peptide)
peptide: DLMGYIPLV
modifications: not checked
For B2, the relative HLA-A2 surface expression (% of CMV/A2 peptide binding) in assay [2] was over 80%.

B3: INSL (peptide)
peptide: LYLVCGERG
modifications: not checked
In the case of B3, the % of RMAS-Kd cells staining positive for surface H-2Kd in assay [1] was 73.7%.
